Data from PMC3891622, “The Sphingolipid Receptor S1PR2 Is a Receptor for Nogo-A Repressing Synaptic Plasticity” (PLoS Biology, 2014).

T1: Fluorescently labeled recombinant Nogo-A-Δ20 (rat aa544-725) (rat, UniProt Q9JK11-1 544-725, fluorescent label (Amine Reactive Protein labeling kit RED, L001, Nano Temper technologies))
T1 construct: Nogo-A (Rtn4), rat, residues 544-725 (Nogo-A-Δ20 domain); not shown: T7 or HA (His-/T7- or His-/HA-tagged)
T1 sequence (looked up): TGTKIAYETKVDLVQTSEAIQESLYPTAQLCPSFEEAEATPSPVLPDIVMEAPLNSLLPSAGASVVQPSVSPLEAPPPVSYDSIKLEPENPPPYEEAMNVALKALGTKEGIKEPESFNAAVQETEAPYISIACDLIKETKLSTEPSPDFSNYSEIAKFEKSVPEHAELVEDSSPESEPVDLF

T2: Fluorescently labeled recombinant Nogo-A-Δ20 (rat aa544-725) (rat), Q9JK11
T2 chain: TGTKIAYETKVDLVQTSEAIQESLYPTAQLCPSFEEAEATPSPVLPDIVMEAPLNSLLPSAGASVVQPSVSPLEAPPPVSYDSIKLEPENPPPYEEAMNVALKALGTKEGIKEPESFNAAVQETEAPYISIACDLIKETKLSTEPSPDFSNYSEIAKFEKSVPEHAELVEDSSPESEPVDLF


Columns and labels:
[1] = biological target: T1, Fluorescently labeled recombinant …; experiment: MST; Monolith NT.115; fluorescently labeled Nogo-A-Δ20 constant (~40 nM), peptides serially diluted; PBS with 0.025% Tween-20, pH 7.4; LED 60%, IR laser 20%; non-linear regression with Hill coefficient 1.0; conditions: both partners purified
[2] = biological target: T2, Fluorescently labeled recombinant …; experiment: as above; conditions: remark: other sources report otherwise

| Kd [1] | Kd [2] | Binder |
| --- | --- | --- |
| ~1700 nM | – | LSGHVTLSLTPVQW (Extracellular loop 1 of S1PR2; also called ECL1; source: synthetic peptide (JPT Peptide Technologies)) [S1PR2 extracellular loop 1 peptide] |
| – | 280 nM | NCLNQLEACSTVLPLYAKHYVL (here or on the partner: fluorescent label (Amine Reactive Protein labeling kit RED, L001, Nano Temper technologies)) [S1PR2 extracellular loop 2 peptide] |
| ~11000 nM | – | MGGLYSEYLNPEKVQEHYNYTKETLDMQETPSRK (Extracellular N-terminus of S1PR2; source: synthetic peptide (JPT Peptide Technologies)) [S1PR2 N-terminus peptide] |
| – | 350 nM | SILLLDSTCPVRACPVLYK (here or on the partner: fluorescent label (Amine Reactive Protein labeling kit RED, L001, Nano Temper technologies)) [S1PR2 extracellular loop 3 peptide] |
